In the RNAGym collection of RNA variant scans (doi:10.1093/molbev/msab373):

B1: Azoarcus group I ribozyme (parent)
chain: GUGCCUUGCGCCGGGAAACCACGCAAGGGAUGGUGUCAAAUUCGGCGAAACCUAAGCGCCCGCCCGGGCGUAUGGCAACGCCGAGCCAAGCUUCGGCGCCUGCGCCGAUGAAGGUGUAGAGACUAGACGGCACCCACCUAAGGCAAACGCUAUGGUGAAGGCAUAGUCCAGGGAGUGGCGAAAGUCACACAAACCGG

Variants of: B1
Experiment: reverse-splicing fitness (ratio to wild type); higher = more active; in vitro selection; Mg2+ level not given
Summary of the method: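 An in vitro group I ribozyme library with randomized positions was T7-transcribed and gel-purified. In triplicate, 10 pmol RNA in EPPS pH 7.5 was reacted with 50 pmoles of a 30-nt RNA substrate for 1 h at 37 °C across several added MgCl2 levels (1–48 mM), then stopped with EDTA. Products were reverse transcribed from a substrate-complementary primer, PCR-amplified and sequenced (HiSeq 4000). Fitness is a variant's read proportion after selection over that before, normalised to wild type.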

| Variant | reverse-splicing fitness |
| --- | --- |
| A111U A120G A145G C150G U176G | 0.00598 |
| A111U A120C A145G C150G C169G U176A | 0.0094 |
| A111U A120C A145G C150G C169G U176C | 0.0106 |
| A111U A120C A145G C150G C169G U176G | 0.00555 |
| A111U A120G A145C C169U U176G | 0.00629 |
| A111U A120G A145C C169U U176A | 0.0455 |
| A111U A120G A145C C169U U176C | 0.0453 |
| A111U A120C C150A U176A | 0.0374 |
| A111U A120C C150A U176G | 0.0118 |
| A111U A120C C150A U176C | 0.0574 |
| A111U A120C C150A C169U U176G | 0.00713 |
| A111U A120C C150A C169U U176C | 0.0196 |
| A111U A120C C150A C169U U176A | 0.0243 |
| A111U A120C A145U C150U U176A | 0.194 |
| A111U A120C A145U C150U U176C | 0.248 |
| A111U A120C A145U C150U U176G | 0.0333 |
| A111U A120G A145G C150G C169A U176A | 0.0126 |
| A111U A120G A145G C150G C169A U176C | 0.0131 |
| A111U A120G A145G C150G C169A U176G | 0.00787 |
| A111U A120G A145G C150A C169A U176A | 0.0188 |
| A111U A120G A145G C150A C169A U176G | 0.00599 |

| Variant | reverse-splicing fitness |
| --- | --- |
| A111U A120G A145G C150A C169A U176C | 0.0255 |
| A111U A120G A145C C169A | 0.11 |
| A111U A120G A145C C169G | 0.193 |
| A111U A120G A145C C169U | 0.151 |
| A111U A120C A145C C169U U176G | 0.00517 |
| A111U A120C A145C C169U U176C | 0.0419 |
| A111U A120C A145C C169U U176A | 0.0309 |
| A111U A120G A145C C150U U176A | 0.0191 |
| A111U A120G A145C C150U U176G | 0.00458 |
| A111U A120G A145C C150U U176C | 0.0201 |
| A111U A120G A145C C150G C169A U176A | 0.00822 |
| A111U A120G A145C C150G C169A U176C | 0.00757 |
| A111U A120G A145C C150G C169A U176G | 0.00416 |
| A111U A120C A145U C169G U176C | 0.00915 |
| A111U A120C A145U C169G U176A | 0.00823 |
| A111U A120C A145U C169G U176G | 0.00415 |
| A111U A120C C150U U176A | 0.154 |
| A111U A120C C150U U176G | 0.0321 |
| A111U A120C C150U U176C | 0.204 |
| A111U A120C A145U C150U C169U U176G | 0.0049 |
| A111U A120C A145U C150U C169U U176A | 0.0306 |

| Variant | reverse-splicing fitness |
| --- | --- |
| A111U A120C A145U C150U C169U U176C | 0.0381 |
| A111U A120G A145C C150G C169U U176C | 0.0146 |
| A111U A120G A145C C150G C169U U176G | 0.00521 |
| A111U A120G A145C C150G C169U U176A | 0.0163 |
| A111U A120C A145C C150U C169G U176C | 0.00958 |
| A111U A120C A145C C150U C169G U176G | 0.00481 |
| A111U A120C A145C C150U C169G U176A | 0.0171 |
| A111U A120G A145G C150A U176C | 0.0274 |
| A111U A120G A145G C150A U176A | 0.0138 |
| A111U A120G A145G C150A U176G | 0.00712 |
| A111U A120C A145G | 0.569 |
| A111U A120C A145U | 0.596 |
| A111U A120C C150U C169A | 0.0121 |
| A111U A120C C150U C169G | 0.00855 |
| A111U A120C C150U C169U | 0.0972 |
| A111U A120G A145G C150G C169U U176C | 0.015 |
| A111U A120G A145G C150G C169U U176G | 0.00728 |
| A111U A120G A145G C150G C169U U176A | 0.0113 |
| A111U A120C C169G | 0.0098 |
| A111U A120C C169A | 0.0124 |
| A111U A120C C169U | 0.174 |

| Variant | reverse-splicing fitness |
| --- | --- |
| A111U A120C A145U C150G U176C | 0.0375 |
| A111U A120C A145U C150G U176A | 0.0175 |
| A111U A120C A145U C150G U176G | 0.00473 |
| A111U A120G A145C C169G U176A | 0.0371 |
| A111U A120G A145C C169G U176C | 0.0387 |
| A111U A120G A145C C169G U176G | 0.00442 |
| A111U A120G A145C C150A C169A U176C | 0.00665 |
| A111U A120G A145C C150A C169A U176A | 0.0144 |
| A111U A120G A145C C150A C169A U176G | 0.004 |
| A111U A120G A145C | 0.159 |
| A111U A120G A145G | 0.175 |
| A111U A120C C150A C169A U176G | 0.00474 |
| A111U A120C C150A C169A U176A | 0.0178 |
| A111U A120C C150A C169A U176C | 0.0133 |
| A111U A120C C169A U176A | 0.0174 |
| A111U A120C C169A U176C | 0.017 |
| A111U A120C C169A U176G | 0.00415 |
| A111U A120C C150U C169U U176A | 0.0292 |
| A111U A120C C150U C169U U176G | 0.00585 |
| A111U A120C C150U C169U U176C | 0.0362 |
